Results: patent US20120034693A1

Columns and labels:
[1] = biological target: wild type Apolipoprotein B mRNA-editing enzyme-catalytic polypeptide-like 3G (A3G), cmyc-tagged, expressed from pD3GFP / D3GFP (human) (UniProt Q9HC16); assay: cell-based or functional assay
[2] = biological target: mutant A3G D128K, cmyc-tagged, expressed from pD3GFPD128K / D3GFPD128K (human) (UniProt Q9HC16); assay: cell-based or functional assay

HIV-1 viral infectivity factor (Vif), expressed from the helper plasmid pcHelp
infectivity of HIV-GFP virus produced from vector-carrying 293T cells in the presence of HIV-1 Vif, percent of control [1]: 89 % of control
infectivity of HIV-GFP virus produced from vector-carrying 293T cells in the presence of HIV-1 Vif, percent of control [2]: 1 % of control
inhibition of HIV-GFP replication by the A3G-expressing plasmid in the presence of HIV-1 Vif (GFP flow cytometry of infected 293T cells) [2]: 90%
